Experiments:
Type in all cases: cell-based
human ES cells = test: Indirect immunofluorescence of definitive endoderm markers after Activin A treatment
Protocol: On day one, three wells of human ES cell colonies (grown on Corning 6×well plate for 4 days) detached by collagenase were collected into a 15 ml tube, and colonies washed twice by low speed centrifugation in differentiation medium A (DMEM/F12, 2% KOSR, 2 mM glutmine, 1×NEAA, 100 μM βMEtOH, 1 mM NaPyruvate and penicillin and streptomycin (PS)).
After all the hES clusters had been collected and washed, the clusters were suspended in 1.5 ml/well of differentiation medium A1, (i.e. differentiation medium A including 100 ng/ml recombinant human Activin A (Preprotech) and 25 ng/ml recombinant Wnt 3 (R&D), 2% knock-out serum replacement and 2 mg/ml bovine serum albumin (BSA, cell culture tested SIGMA)). 450-500 colonies/well were seeded in Costar 6×well plates which had been coated with 0.1% porcine gelatin (Sigma) 1 day before. Alternatively, about 3000 colonies were seeded on 10 cm diameter plates. Plates were left in the incubator (37° C., 5% CO2) for 2 days without medium change.
On day 3, the medium was changed to differentiation medium A2 (DMEM/F12, 2% KOSR, 2 mM glut, 1×NEAA, 100 μM βMEtOH, 1 mM NaPyr and 2% Fetal Calf Serum (FCS)) containing 100 ng/ml Activin A and 2 mg/ml BSA. At this stage, clusters still floated and many single cells were visible. The plates were tilted so that clusters fell to the bottom edge of the well and the old medium was removed leaving clusters in 300 μl medium that is completed with 1.2 ml of medium A2. The collected culture medium that contained a few clusters was centrifuged at 900 rpm for 5 minutes. The pellet was re-suspended in 1.5 ml medium A2 and added to one of the wells. On day 4, most clusters adhered to the plate and the culture medium was changed similarly as on day 3, to differentiation medium A3 (DMEM/F12, 2 mM glutamine, 1×NEAA, 100 μM βMEtOH, 1 mM NaPyr but with 0.2% FCS) that contained 100 ng/ml Activin A and 2 mg/ml BSA. Cells were left in the medium A3 for 2 days.
Cells were fixed (4% paraformaldehyde in Ca^2+ and Mg^2+ free PBS for 20 minutes), washed ×3 with PBS and blocked with 10% horse serum in PBS. The reaction with the primary antibody (Ab) was performed in 10% horse serum with or without 1% BSA. Secondary antibodies (Either donkey anti mouse; donkey anti rabbit; donkey or rabbit anti-goat that are conjugated with fluorescent tags, Alexa 488 or Alexa 566 (Molecular Probes/Invitrogen) or with Cy3/donkey anti rabbit DyLight 488 (Jackson laboratories). Pictures were taken with a CCD camera and processed with an imaging program. Mouse monoclonal anti Sox17 Ab (R&D) 10 μg/ml was used with 0.1% Triton X100. Rabbit polyclonal anti FoxA2 (ab40874) (Abcam) was used at the dilution of 1/1000 with 0.1% Triton X100.

Human insulin mRNA = Human insulin mRNA by RT-qPCR with TBP as reference
Protocol: (§1) Aliquots of the Presort culture and of EpCAM-MACS-separated fractions (from step 7), as well as of re-aggregated clusters (step 8) were analyzed. The number of cells was counted, using the Nucleocounter. After centrifugation at 350×g for 5 minutes, cell pellets were dissolved in M-PER (Mammalian protein extraction reagent, Pierce), typically using 0.1 ml M-PER for 2 million cells, and content of human insulin C-peptide was measured with an ELISA kit (Mercodia, Upsalh, Sweden, ultrasensitive c-peptide kit (minimal detection 5 pM) or Mercodia c-peptide ELISA (minimal detection 90 pM). Samples in M-PER were diluted 3 fold, or more in the kit buffer, and 20 μl of the ⅓ dilution were assayed. Results were expressed per mg total protein (as measured by Bradford assay) and per million cells (counted in a NucleoCounter). Other cell pellets were suspended in 0.7 ml buffer RLT (RNAeasy, Qiagen) per million cells, for RNA extraction. Human insulin mRNA was quantitated by RT-qPCR (Taq-Man, Applied Biosystems, Step One) using the TATA binding protein (TBP) gene as reference. In the same way, proteins and RNA were extracted from entire plates after scraping the cells with a rubber policeman.
Differentiation of hES cells towards a pancreatic lineage: The hES cell cultures were differentiated as detailed in Example 5 and FIG. 15, steps 1-8, and RNA extracted at different steps was subjected to RT-qPCR.
Human ES cells were differentiated according to the scheme illustrated in FIG. 22. Two modifications were made in the procedure detailed in Example 5. Thus, in step 2 and 3, the fetal calf serum was replaced by serum replacement (KOSR, Invitrogen), at the same concentrations (i.e. 2% in step 2, 0.2% in step 3). In addition, in step 5, Noggin (Preprotech) was added at 100 ng/ml. The EpCAM-MACS fractionation was performed as in Example 5.

human insulin C-peptide = test: Content of human insulin C-peptide by ELISA in cell fractions
Protocol: On day 20, the medium used in step III of Example 2 was modified to adjust the glucose concentration to 5.5 mM (referred to herein as DM7). For isolation of EpCAM^+ cells by magnetic cell sorting (MACS technology, Miltenyi Biotec), a 10 cm-diameter plate was washed with PBS^−/− (no Ca^++, no Mg^++). Cells were then dissociated by treatment with Accutase (Stempro, 2.5 ml/10 cm plate), for 10 minutes at 37° C., and pipetting up and down. The cells were collected in DM7 and an aliquot counted in a NucleoCounter (New Brunswick). Cells were centrifuged at 1,500 rpm (350×g) for 5 minutes and re-suspended in MACS buffer (PBS^−/− with 0.5% BSA, 2 mM EDTA), using 0.3 ml for 50 million cells. Magnetic beads conjugated to anti-EpCAM antibodies (Miltenyi Biotec—CD326 pluripotent stem cells microbeads) were added (0.1 ml beads for 50 million cells). After 30 minutes at 4° C., the cells were washed once in 50 ml of MACS buffer, centrifuged, and finally re-suspended in 0.5 ml MACS buffer (for a maximum of 10^8 cells). […]
as §1, with “Other cell pellets were suspended in 0.7 ml buffer RLT (RNAeasy, Qiagen) per million cells, for RNA extraction.” left out, “In the same way, proteins and RNA were extracted from entire plates after scraping the cells with a rubber policeman.” left out

[1] = five days Activin A conditioning, positive nuclei relative to DAPI nuclei (FIG. 1)

Molecule | cells anti Oct4 positive (human ES cells; end of 5 days of Activin A treatment) | cells expressing Sox17 and/or FoxA2 (human ES cells; end of 5 days of Activin A treatment, 100 ng/ml) | yield of cells expressing FoxA2 (human ES cells; [1]) | yield of cells expressing Sox17 (human ES cells; [1]) | Ratio Insulin mRNA over TBP mRNA (Human insulin mRNA; Table 5 Expt 1, D 19 (EpCAM+)) | Ratio Insulin mRNA over TBP mRNA (Human insulin mRNA; Table 5 Expt 1, D 19 (Presort)) | Ratio Insulin mRNA over TBP mRNA (Human insulin mRNA; Table 5 Expt 1, D 23 (EpCAM+)) | Insulin C-peptide (human insulin C-peptide; Table 4 Expt 1, D 19 (EpCAM+)) | Insulin C-peptide (human insulin C-peptide; Table 4 Expt 1, D 19 (Presort)) | Insulin C-peptide (human insulin C-peptide; Table 4 Expt 1, D 23 (EpCAM+))
Activin A: recombinant human Activin A (Preprotech), 100 ng/ml (protein, UniProt P08476 311-426, looked up, Inhibin beta A chain) Inhibin beta A chain: GLECDGKVNICCKKQFFVSFKDIGWNDWIIAPSGYHANYCEGECPSHIAGTSGSSLSFHSTVINHYRMRGHSPFANLKSCCVPTKLRPMSMLYYDDGQNIIKKDIQNMIVEECGCS | 5% | about 75% | 89% | 98% |  |  |  |  |  | 
Noggin: Noggin (Preprotech) added at 100 ng/ml in step 5 (protein, UniProt Q13253 28-232, looked up) Noggin: QHYLHIRPAPSDNLPLVDLIEHPDPIFDPKEKDLNETLLRSLLGGHYDPGFMATSPPEDRPGGGGGAAGGAEDLAELDQLLRQRPSGAMPSEIKGLEFSEGLAQGKKQRLSKKLRRKLQMWLWSQTFCPVLYAWNDLGSRFWPRYVKVGSCFSKRSCSVPEGMVCKPSKSVHLTVLRWRCQRRGGQRCGWIPIQYPIISECKCSC |  |  |  |  | 0.7 | 0.6 | 0.7 | 8.15 ng/mg protein | 2.9 ng/mg protein | 17.5 ng/mg protein

From patent US9404087B2, “Insulin producing cells derived from pluripotent stem cells” (Kadimastem Ltd., priority 2010, dated 2016)
